Laboratory results published in patent publication US12221481B2, “CD19 binding molecules and uses thereof” (Novartis AG, priority 2019, dated 2025).
Residue numbers refer to the chain shown, from its start. One block for each molecule: values may come before it.

Legend:
human CD19 = target: T1, human CD19 (Homo sapiens, UniProt P15391); assay: Binding of TBMs to 300.19 cells overexpressing human CD19 (FACS); conditions: for binding to human CD19 compared with cyno CD19: 300.19 cells overexpressing human or cyno CD19
T1 construct: expressed in transfected cells; host or cells: mouse cell line 300.19
T1 sequence (P15391 20-556): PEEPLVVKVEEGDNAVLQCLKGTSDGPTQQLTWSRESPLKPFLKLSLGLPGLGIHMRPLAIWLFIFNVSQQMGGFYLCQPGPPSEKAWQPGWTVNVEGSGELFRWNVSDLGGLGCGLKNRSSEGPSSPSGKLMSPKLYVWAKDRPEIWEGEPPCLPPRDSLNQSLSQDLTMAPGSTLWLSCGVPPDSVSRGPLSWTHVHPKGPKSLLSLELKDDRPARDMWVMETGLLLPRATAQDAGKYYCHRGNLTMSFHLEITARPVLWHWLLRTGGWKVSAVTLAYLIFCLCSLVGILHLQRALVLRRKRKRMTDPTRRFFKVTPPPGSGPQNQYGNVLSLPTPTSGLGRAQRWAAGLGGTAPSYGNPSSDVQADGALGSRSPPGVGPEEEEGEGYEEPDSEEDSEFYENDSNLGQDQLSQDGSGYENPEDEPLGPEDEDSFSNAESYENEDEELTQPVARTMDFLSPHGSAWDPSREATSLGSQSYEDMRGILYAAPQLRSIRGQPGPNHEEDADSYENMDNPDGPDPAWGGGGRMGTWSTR
Procedure: (§1) The mouse cell line 300.19 was engineered to overexpress either human CD19 or cyno CD19. Cells were cultured in RPMI medium (Invitrogen #11875-093) with 10% FBS and 2-mercaptoethanol. Cells were harvested and resuspended in FACS buffer (PBS containing 1% FBS). 50,000 cells per well were plated in a V-bottom 96-well plate. Each cell line was incubated with serial dilutions of TBMs of Example 1A (i.e., R variants) for one hour on ice. Cells were centrifuged for 4 min at 400×g and washed with FACS buffer. This was repeated twice, and then the cells were incubated with Alexa-647 labeled anti-human Fc secondary antibody (Jackson Immuno #109-605-098) for 30 min on ice. The cells were washed twice, then resuspended in 100 μL of FACS buffer. FACS data was collected on a Beckman Coulter Cytoflex and analysis was performed using CytExpert v2.3.

cyno CD19 = assay: Binding of TBMs to 300.19 cells overexpressing cyno CD19 (FACS); parameters: species or system cynomolgus
Procedure: as §1

CD3-Fc = assay: CD3 affinity measurement of anti-CD3 mAbs (Biacore T200); type: binding; conditions: as measured by Biacore; stated to be for identification, not absolute affinity values
Excerpt: For each trispecific construct, three plasmids were synthesized. […] It should be understood that with respect to the mentioned Biacore affinity values and relative terms in the construct names, these are used merely for identification purposes and are not intended to represent absolute affinity values. A second plasmid encoding a light chain was synthesized as a fusion comprising (in the N-terminal to C-terminal direction) (i) an anti-CD19 VL domain and (ii) a constant human kappa sequence. The proteins encoded by the first and second plasmids form the first half antibody. A third plasmid encoding the second half antibody was synthesized as a fusion comprising (in the N-terminal to C-terminal direction) (i) the IgV domain of CD58 (CD58-6) and (ii) a constant hIgG1 domain containing a T366W mutation for a knob to facilitate heterodimerization as well as silencing mutations.
Briefly, anti-hFc IgG1 was immobilized on a CM5 chip. After capturing CD3-Fc (1 μg/ml in HBS-EP+ buffer, flow rate of 50 μl/min, with a 30 second injection time) kinetic data was acquired by subsequent injections of 1:2 dilution series of the different antibodies in HBS-EP+ buffer.
Data were evaluated using the Biacore T200 evaluation software version 1.0. The raw data were double referenced, i.e. the response of the measuring flow cell was corrected for the response of the reference flow cell, and in a second step the response of a blank injection was subtracted. Finally, the sensorgrams were fitted by applying 1:1 binding model to calculate kinetic rate constants and dissociation equilibrium constants. Rmax was set at local. Data were processed individually for each run.

[1] = Thermal stability of CD58 variants by differential scanning fluorimetry (DSF); type: physicochemical
Procedure: Disulfide stabilized variants were assessed for improved thermal stability using both differential scanning calorimetry (DSC) and differential scanning fluorimetry (DSF) using standard techniques. For DSF, 1-3 ug of each construct was add to 1× Sypro Orange (Thermo-Fisher) in 25 ul total volume in 96-well PCR plate. Using a Bio-Rad CFX96 RT-PCR system equipped with C1000 Thermal Cycler, the temperature was increased from 25° C. to 95° C. at 0.5° C./minute and the fluorescence monitored. The manufacturer-supplied software was used to determine Tm.

[2] = Thermal stability of CD58 variants by differential scanning calorimetry (DSC); type: physicochemical; conditions: HBS, 0.5 mg/mL
Procedure: For DSC, all samples were dialyzed into HEPES-buffered saline (HBS) and diluted to final concentration of 0.5 mg/mL. Tm and Tonset were determined using a MicroCal VP-Capillary DSC system (Malvern) by increasing temperature from 25° C. to 100° C. at 1° C./minute with a filtering period of 2 seconds and a mid-gain setting.

recombinant human CD2 = target: T2, recombinant human CD2 (Homo sapiens, UniProt P06729); assay: Isothermal calorimetry (ITC) of CD58 variants binding to CD2; conditions: apparent KD, CD2 titrated into 10 μM CD58 variant, HBS
T2 construct: transiently produced and purified from HEK293 cells along with the CD2 extracellular domain; made in house; host or cells: HEK293 / HEK293F, transient
T2 sequence (P06729 with tags, fused parts or gaps): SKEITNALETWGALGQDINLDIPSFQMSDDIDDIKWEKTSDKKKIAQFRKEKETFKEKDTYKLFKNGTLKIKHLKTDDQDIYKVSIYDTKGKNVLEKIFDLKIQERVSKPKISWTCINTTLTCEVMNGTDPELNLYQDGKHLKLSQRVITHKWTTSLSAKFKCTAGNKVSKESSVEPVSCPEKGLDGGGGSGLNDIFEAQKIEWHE
Procedure: To ensure the binding affinity remained uncompromised by the additional of the stabilizing disulfide variance, isothermal calorimetry (ITC) was performed on the resulting recombinant CD58 proteins to determine their apparent KD and binding stoichiometry (n) to recombinant human CD2.
Briefly, recombinant human CD2 and recombinant human CD58 variants were dialyzed into HEPES-buffered saline (HBS). CD2 was diluted to final concentration of 100 μM, CD58 variants were diluted to 10 μM. CD2 was titrated into 10 μM of CD58 variants via multiple injections and ΔH (kcal/mole) determined using a MicroCal VP-ITC isothermal titration calorimeter (Malvern). Titrations of CD2 into HBS were used as a reference and KD and n determined from the resulting data.

B1: NEG218: CD19 antibody; VH SEQ ID NO:39, VL SEQ ID NO:52 (antibody, V domains shown)
VH: EVQLVQSGAEVKKPGESLKISCKASGYSFTNYWMNWVRQMPGKGLEWMGMIHPSDSEIRLNQKFQGQVTLSVDKSIGTAYMQWSSLKASDTAMYYCSRWYYLSSPMDYWGQGTTVTVSS
VL: EIVMTQSPATLSVSPGERATLSCRASQDVGTAVAWYQQKPGQAPRLLIYWASTRHTGIPARFSGSGSGTEFTLTISSLQSEDFAVYFCQQYSSYPYTFGQGTKLEIK
binding to human CD19 compared with cyno CD19 (human CD19): greater affinity for cyno CD19 than human CD19

B7: IgV V54C_G88C: CD58 IgV domain with V54 and G88 replaced by cysteines (stabilizing disulfide) (protein)
chain: SQQIYGVVYGNVTFHVPSNVPLKECLWKKQKDKVAELENSEFRAFSSFKNRVYLDTVSCSLTIYNLTSSDEDEYEMESPNITDTMKFFLYVLESGGGGSHHHHHHHH
Tm by Differential Scanning Fluorimetry (DSF) [1]: 76.5 °C
Tm by Differential Scanning Calorimetry (DSC) [2]: 80.9 °C
Tmonset by Differential Scanning Calorimetry (DSC) [2]: 66.7 °C

B8: IgV V45C_M114C: CD58 IgV domain with V45 and M114 replaced by cysteines (stabilizing disulfide) (protein)
chain: B7 chain with V16C, C25V, C59G, M85C
Tm by Differential Scanning Fluorimetry (DSF) [1]: 63.5 °C
Tm by Differential Scanning Calorimetry (DSC) [2]: 72.5 °C
Tmonset by Differential Scanning Calorimetry (DSC) [2]: 49.6 °C

B9: IgV V45C_M105C: CD58 IgV domain with V45 and M105 replaced by cysteines (stabilizing disulfide) (protein)
chain: B7 chain with V16C, C25V, C59G, M76C
Tm by Differential Scanning Fluorimetry (DSF) [1]: 48.5 °C
Tm by Differential Scanning Calorimetry (DSC) [2]: 66.8 °C
Tmonset by Differential Scanning Calorimetry (DSC) [2]: 43.9 °C

B10: CD58_IgV: recombinant human CD58 IgV domain (domain 1), no added disulfide (protein)
chain: B7 chain with C25V, C59G
Tm by Differential Scanning Fluorimetry (DSF) [1]: 48.5 °C
Tm by Differential Scanning Calorimetry (DSC) [2]: 60.9 °C
Tmonset by Differential Scanning Calorimetry (DSC) [2]: 46.3 °C

Continued, in another order:

binding to human CD19 compared with cyno CD19 (human CD19): bind equally to both human and cyno
B2: NEG258: CD19 antibody; VH SEQ ID NO:13, VL SEQ ID NO:26 (antibody, V domains shown)
VH: QVQLVQSGAEVKKPGASVKVSCKASGYTFTTYWIQWVRQAPGQRLEWMGAVYPGDADTRYTQKFQGRVTLTADRSASTAYMELSSLRSEDTAVYYCGRDAGLEYYALDYWGQGTLVTVSS
VL: EIVMTQSPATLSVSPGERATLSCRASQDVGTAVAWYQQKPGQAPRLLIYWASTRHTGIPARFSGSGSGTEFTLTISSLQSEDFAVYFCQQYANFPLYTFGQGTKLEIK
affinity for human CD19, NEG258 vs NEG218 (human CD19): greater affinity for both human CD19 and cyno CD19
affinity for cyno CD19, NEG258 vs NEG218 (cyno CD19): greater affinity for both human CD19 and cyno CD19

Kd (CD3-Fc): 16 nM
B3: CD3hi: anti-CD3 antibody having high affinity to CD3 (in relative terms) (antibody, V domains shown)
VH: EVQLVESGGGLVQPGGSLKLSCAASGFTFNTYAMNWVRQASGKGLEWVGRIRSKYNNYATYYADSVKDRFTISRDDSKSTLYLQMNSLKTEDTAVYYCVRHGNFGNSYVSWFAYWGQGTLVTVSS
VL: QAVVTQEPSLTVSPGGTVTLTCRSSTGAVTTSNYANWVQQKPGQAPRGLIGGTNKRAPWTPARFSGSLLGDKAALTLSGAQPEDEAEYFCALWYSNLWVFGGGTKLTVL

Kd (CD3-Fc): 30 nM
B4: CD3med: anti-CD3 antibody having medium affinity to CD3 (in relative terms) (antibody, V domains shown)
VH: B3 VH with S79N, L81A, Y114H
VL: B3 VL with R23G, T31S, D71G, F89Y

Kd (CD3-Fc): 48 nM
B5: CD3lo: anti-CD3 antibody having low affinity to CD3 (in relative terms) (antibody, V domains shown)
VH: B3 VH with L81A
VL: B3 VL

Kd (recombinant human CD2): 570 nM
B6: CD58 Full ECD: recombinant human CD58 full extracellular domain (protein)
chain: SQQIYGVVYGNVTFHVPSNVPLKEVLWKKQKDKVAELENSEFRAFSSFKNRVYLDTVSGSLTIYNLTSSDEDEYEMESPNITDTMKFFLYVLESLPSPTLTCALTNGSIEVQCMIPEHYNSHRGLIMYSWDCPMEQCKRNSTSIYFKMENDLPQKIQCTLSNPLFNTTSSIILTTCIPSSGHSRHRGGGGSHHHHHHHH
Tm by Differential Scanning Fluorimetry (DSF) [1]: 59.5 °C
Tm by Differential Scanning Calorimetry (DSC) [2]: 65.0 °C
Tmonset by Differential Scanning Calorimetry (DSC) [2]: 48.8 °C
